# Measured values: the DeepSol protein solubility set
# Assay: soluble on expression in E. coli; label from the status in PepcDB or PDB records
row,Sequence,soluble on expression in E. coli
1,MGSDKIHHHHHHMSVCARPERPWDERDRERFMHRNKVVSREDWFQAHKAHLAREKELTRLRERVAAERRELPWLKVRKDYVFETEQGPKKLAELFANRSQLIVYHFVFAPGSTHHCESCAFVADHMDGANRHLRHHDVSLVTISRAPLVELLPYKQRMGWTFDWVSSYASDFNFDMQVSFTDRQIASGEAVYNFETPVLTSKDLPGTTVFYKGETGDIFLTFMSRARGSEQFIGAYQYLDIAPKGRDETGPYGTFMDWVRLHDEYGNRSQRDDVCP,not soluble
2,MHKYRLVAKKGEGTFSEVLKAQCIKNGKYVAIKCMKNHFDSLDQVNNLREIQALRRLSPHANIIKLLEVLYDQPTGRLALVFELMDMNIYELIRGRRHYVAEERIKNYMYQLMKSMDHMHRNGIFHRDIKPENILIMDDCLKLADFGSCRGIYSKQPYTEYISTRWYRAPECLLTDGYYNYKMDMWGVGCVFFEIVSLFPLFPGTNELDQITKIHNILGTPPPDLLAKMKKRSAHMDFNFPPKEGSGVAKLIPHVNPECVDLIVKLLMYNPDERLSARQALRHPYFRDLREAEKRQKALLAPDVSNHFTAMEADKARQQQTVSSTGSDHEHPTSAGGDGGAGTGAVGTHDGSAAAAAAAAALPSISGARGHAGPEGGHDNDMG,not soluble
3,MGSDKIHHHHHHMKVLEKDYQINSVRKAIDAGANSIIALPTGGGKSICILKLCQAMPDKKVVISLRNAALVPQLLHTLTINGLSVSVVKSGYKYIAGGDVTLVMEQSFGRRKHLNIQCDVLLRDEYHVGCMGGVYIAMREELSPDLIIGLTATPIDRLGVYIDKSMQLIEETTTKMLIEAGELAKPVYKVPSLSQEIDYSAVKMYRGDFSVSGLDNILLEHCSLVAQQTVDDALSHGRKVMLFANSINHVESLSEAFDLLGIEHERVHSQRSSDENDESIRRYKSNEVRLIINMSMLTIGFDDPTTDCVVLARPTKILRLYLQIIGRCLRASKGKTSALILDLAQCISTHGFAEDLRDFTRKTSKSAAIMAERLSVTNIGQFVDGEFTYNESIERKVVKKRAPVIRRKPRDGLVASKELVDRAASNRAAALLRLNPRMEKLVSTIELVNIVYEQQDESSKMLDEVAMVKLVALIGFAYSDALVDSCTALVEGLHAQNQSIRGLPLRVSNLITSIAMQDLGVKEVVTKS,not soluble
4,MPSTADTVEVDFITPRHLAGGGDPAWITVPLHRACGWSHGHDPLMPRALLSSPDQKALLRLEPDPDGQWWTLNHTAESGRPAWYASFGARTPVELIAAFTDALTAPAPPTDAPCDPFEPLRQIAWSAPAVGADGLVSPDGTAYVQRQGSADGPGAWFVTVTLGPRPVWQARFDAHTPEHLVAAFTTALADPKPALRTDSGRSLPTRNPNVVTRKTTDVLAVDIAGALEERVQTLTTRHPLPPANPMPPTPPPTRHGRSRLEHHHHHH,soluble
5,MGSDKIHHHHHHMTISISEPTPPASLLAIKDEIRAEALKLGFSVCGFASATDAWPNGGWLREFVQAERHGAMGWMEETLERRSHPTAMWTDAKSAVVLGVNYGPDIDPLEQLADPARAAISVYAQGDDYHDVIKKRLKVLAGWMHRRFGQEVKVFVDTAPLLEKPLAQRAGLGWQGKHTNLVSRQFGSWLFLGSVLTTLDLPADDAEVDHCGSCRACLDVCPTNAFPAPRQLDARRCISYLTIELSGPIPAEFRPAMGNRIYGCDDCLAVCPWNKFASLSNEAKLVAREALRQPSLAELAVLDDAAFRALFSKNPIKRIGRDRFVRNVLYAIGNSGDAGLMAVVEPLLDDPAPVVRGAAVWAARRLLGDDAAALKRGENDESVLAEWS,not soluble
6,MSVQDTKAVEFSMGHIRSSSVSLVAEATSNTNSEDKLSKVQLYEDLCRYEDTLSKLVESVDRFKPNLDIAKDLIRTDEALFENVKLLAEYDNIYRNLQKIDKDSEELDSKTRKILEILNECHDELKALPMLEQVEFEKNTILQQRSKINSTELLDYATKLSKFTKIPPTFDKGAVGPNNFIWPAEDALRRGMLAMASLHSKELTRIPGEEVEETEVPTVPPSQSEEQKGQMAKKEGTPKTDSFIFDGTAKEVGDEADNTKDKEKEENNDDALDLDLDLFDPDDF,soluble
7,MSVKKLENGQYQVDVSFGFDPITGERIRTRPVASTRKEALELEAKLRREFQEERARKSRSVSFPTLISIYLASCEIDSKPNYYQNQKYIINKHISDYFLKSDIQKITHREITDFRKHLMETGLSNKSVNNIMTSLSKIFDTAVHEEILKRNPCDNVKRLPLTRKKMKFWRPEEFKKFISLIPQDQLLFKTFYTVAFLTGLRCGEMLALQWKDIDKILLEIDVHKSCTWLDGQFVVTTPKTKNSIRRVSINKKLLKLLERWKEAQEELFNELGIRHSHDTYIFQYKDTPSRKDIFSRKIKYFCKDSDLTPIRLHDFRHSHVALLIHQGEDYITIKERLGHGSVKTTIDVYGHLYPNKQKEMADKLDDLL,not soluble
8,MSLSEFLTKNEEKIEKIVKFHRSFDEMSQTQRQAWLEEMGDINIEHFFKANQRVFDEDGPRERSIPRRDFFLDVIKNRVKSDPLLQPKGHPVTNYLQENIHIRKLCEKITDTFCVEEIASYDAALNLLYELSKIHTHYLRKEDQLFPYLEKHNFTYPSTGMWKFQDEIRANLKMVIKAFEKNELNKEMQTLMRDVVKDIFDMTTREEKMLLPTSVKLLSNEEWIKMRKEEQEIGYVFIQSPPMWPEDESHKPDMASSLGSIFLQEGSLSQEQLNLFFSHLPFDVTFVDENDRVAFFNKGSERTFLRSAGVIGREVKFCHPPKSVDAVLKILEAFKAGTKESAEFWITFGGRLIHIRYFALRDSEKNYKGVVEITQDITDIKNIEGERRLLDWEEGHHHHHH,soluble
9,MKHEEMNQRFNHLENEITELNKKLSALVSSEDENKRRDEHYAAIYDYCHKVAHETFMKFLQEKFLPAALSEKEAAYLRPEYVITVNSAGEEEHKSDFIASAPDKDQEPHRPFRVSCEEGEFVVYENGKPVRASHHHCLKIINLAIRCLKDENTRVMKRIGRCMGYLQVAAEIEALASGADMDAAVREALLRDFNTPPLRKSLMTGSSRG,not soluble
10,MAHHHHHHMTKTNGQNAARKLVRLRCRNRWADKGWKRAHTFSARKANPFGGSSHAKGIVLEKIGVGAKQPNSAIRKCVRVQLIKNDKKIIAFVPNDGCLHFIEENDEVLVSGFGRSGHAVGDIPGVRFKIVKVSNVGLYALYRQKKEKPRN,not soluble
11,MVVSYSDSTPFGERISDSLKETQKLHTMQLNLGKVCNLACRHCHVEAGPNRREQMSQEVMKKALELFVRHGFETLDITGGAPEMNPHFEWLIHEGSKVASRLIVRTNLVILKESPWEHLAEFYAKHKVELVASLPEVSEEEVDRVRGRGVYGDSIEVIKRLNALGYGKNPDLKLDFVYNPSGPFLPPRVMELERLYKEQLFEKEEIFFHRLLSMNNIPIGRFRDSLERSGELLEYETLLRTHFNPSATPHLMCRSQISVSYEGRIYDCDFNQMLSLEAQGAKSLEEMLIQKSLKRRVVFGEHCYACTAGLGSSCQGVIAPEPL,not soluble
12,MAHHHHHHMLETQHLHTHSGRLIPPPPRRTPRRKSSVCRTPTRRHNPAESGLSASSKTTRSDVYECRMAPVRGRRESHDSTPGRPRAPEDVNYARGRSMNERPAPSKPQCAIPSKNGRLEESRASTLAVDRERFSQTRWGRSDEIISQSPLAGRSHSLREGEFCDPQALTMRLRHSLSRGYSPQCGHPTQAVVGTELAPPMPRLQGAYGTSKNRYRKTIERFIECQPTNTQKEMQSMLEEYRGRENELCEALSVAYSDSWEASVRGNDTIIQSHKNDNCSKFALNESPGMPEMKDFPRVGNGKGHFDSMNNGECNHNATAENHRQRMTKPTSSSHSTPSRFQDSHQNVDCLRSFSDVATPRRNEGINLSKSAEKERYDEDTSPHLRNGSSGGVNVPLSLGIILEQGETSPRSGGMLTPPIPADLLAR,not soluble
13,PRRGPVAKRDVLPDPIYNSKLVTRLINKIMIDGKKSKAQKILYTAFDIIRERTGKDPMEVFEQALKNVMPVLEVRARRVGGANYQVPVEVRPDRRVSLGLRWLVQYARLRNEKTMEERLANEIMDAANNTGAAVKKREDTHKMAEANKAFAHYRW,soluble
14,MQKINIDRHATAQINMLANKLMLKSSTAYTQKFGIGMTEWRIISVLSSASDCSVQKISDILGLDKAAVSRTVKKLEEKKYIEVNGHSEDKRTYAINLTEMGQELYEVASDFAIEREKQLLEEFEEAEKDQLFILLKKLRNKVDQM,soluble
15,MSNEISDRKVSDTLKDKKPMSLLLLGTDTGEFGRSYKGRTDTIMMMVINPKTNKTTVVSLPRDMKVNLPDYPDYSPAKINAAYTYGGVDETVKTIKKYFNVPTDAYVMVNMGGLEKAIDQVGGVTVKSPLTFDYEGYHFTKGVTYHMNGKKALAFSRMRYDDPRGDYGRQERQRLVIMALLKSSISYKTVVNQTFLNSISKQTMTNLTFDNMVALAQNYRHATDNVTTDHAQGQGDWENGVAYESVSQAECQRISNKLRAALGLKPETLKTGELEHHHHHH,soluble
16,SKEHQAVSLEAARQSLVLLKNETNLLPLSKSIRSIAVIGPNANEQTQLICRYGPANAPIKTVYQGIKELLPHTEVIYKKGCDIIDPHFPESEILDFPKTAEEVQLMEEAIRAAKQAEVVVMVLGGNELTVREDRSRTSLNLPGRQEELLKAVCATGKPIILVMLDGRASSINYAAAHIPAILHAWFPGEFCGQAVAEALFGDYNPGGRLAVTFPKSVGQIPFAFPFKPGSDESSSTSVYGALYPFGHGLSYTTF,not soluble
17,SSGGKSAQGPEEGGVCITEALITKRNLTFPEDGELSEKMFHTLDELQTVRLDREGITTIRNLEGLQNLHSLYLQGNKIQQIENLACIPSLRFLSLAGNQIRQVENLLDLPCLQFLDLSENLIETLKLDEFPQSLLILNLSGNSCTNQDGYRELVTEALPLLLDLDGQPVVERWISDEEDEASSDEEFPELSGPFCSERGFLKELEQELSRHREHRQQTALTEHLLRMEMQPTLTDLPLLPGVPMAGDSSPSATPAQGEETVPEAVSSPQASSPTKKPCSLIPRGHQSSFWGRKGARAATAPKASVAEAPSTTKTTAKRSKK,soluble
18,MSLGAQADTILNVATAGDQNMVDYVKTWLGPKFEAAHPGVKVRVIGTGPGDAGSNKISEKLTAQQESGAQQWDIDVAVVHQKAGGEQVAKGLLQKYRQDIQTGGMVSSPSATQALGVNVDGYVMPMFLSQTAIAWNSDLVTTPPASYDELVAWTQKHPQAFGYNGIKNGMSGVSFVVGWIYAYGTDAQRLSAGPYDKSVEKGWQQAYEKLKAFNKNVTFTPGNAGTLDMLSRGEIAMGPVWVDMFYSWKDQGKLPPSIKLALLAPGMPGQPMYYVIPAKAANPQLARDFIALATSPEVQAQGIVKQFNWYPGIDAGQVKPKLDAATWQKLFAEISPEALAKYGKSFPIAPYFDDIKEGYESQVANEGHHHHHH,soluble
19,MARTRSADYENIRDTIIERAAAMFARQGYSETSIGDIARACECSKSRLYHYFDSKEAVLRDMLTTHVDSLLERCRQVLYGSNEPKTRFLQIVKLFLEIYATSRDRHVVMLTCLDALPEDQRKALIAKQRELIAYVRDALLQLRPDMAANRTLAHVDTMLFFGMINWTYTWYKADGSVSPDALAERTVQLFLDGYLNLLSA,soluble
20,MVVKSLVYGIYPRSERLRKAYNRWERGLVGNEEIRRTISEEKDRFYEYVKSVGISEFTDPLFNWHDIFRPIALSVSGVTLGPLKRYLETNTFYREPEISGHITLQRKLDTFDLLEENPPLPLFALAKGSSIFLPTPSSFYKMSSVKANIGAEELYKDLVNVYSDIIDIFKPRSLVLYEVFPYNGDNLSYLESLNQKISVHLLTKGKISEKNFNGIKHKFESIISDDHPEFLKNYAKYYGFKIIDVNKTKVEDPNADYGIENYEDAIVTSNDYFDFLPREIADIKVEVLGKVGEAAALEHHHHHH,not soluble
